Our source for the EC50, microneutralization test values is patent US20160052997A1.

This experiment concerns the target HA of A/CA/04/09 (H1N1) virus (Influenza A virus A/CA/04/09 (H1N1)). In words: cell-based or functional assay.

CT-P27 gave an EC50, microneutralization test of 0.62 µg/mL.
